Test system: BoHV-1 whole virus (purified virion) (Bovine herpesvirus 1 (BK1952, CVCC; Methods also says field isolate from China))
Experiment: ELONA

GCTGCAATACTCATGGACAGGGCGGCGGGGTGGGGTGGGCGGTTTGATTCCCATGGGTGCGTCTGGAGTACGACCCTGAA [IBRV-A4]
Kd: 3.52 nM

Reference: PMC5603541
